According to article PMC6030175, “A senataxin-associated exonuclease SAN1 is required for resistance to DNA interstrand cross-links”:

Target: T1, SAN1 D90A (catalytically inactive) (mouse or human ( for the …, UniProt Q6RI63 1-786, D90A))
T1 sequence: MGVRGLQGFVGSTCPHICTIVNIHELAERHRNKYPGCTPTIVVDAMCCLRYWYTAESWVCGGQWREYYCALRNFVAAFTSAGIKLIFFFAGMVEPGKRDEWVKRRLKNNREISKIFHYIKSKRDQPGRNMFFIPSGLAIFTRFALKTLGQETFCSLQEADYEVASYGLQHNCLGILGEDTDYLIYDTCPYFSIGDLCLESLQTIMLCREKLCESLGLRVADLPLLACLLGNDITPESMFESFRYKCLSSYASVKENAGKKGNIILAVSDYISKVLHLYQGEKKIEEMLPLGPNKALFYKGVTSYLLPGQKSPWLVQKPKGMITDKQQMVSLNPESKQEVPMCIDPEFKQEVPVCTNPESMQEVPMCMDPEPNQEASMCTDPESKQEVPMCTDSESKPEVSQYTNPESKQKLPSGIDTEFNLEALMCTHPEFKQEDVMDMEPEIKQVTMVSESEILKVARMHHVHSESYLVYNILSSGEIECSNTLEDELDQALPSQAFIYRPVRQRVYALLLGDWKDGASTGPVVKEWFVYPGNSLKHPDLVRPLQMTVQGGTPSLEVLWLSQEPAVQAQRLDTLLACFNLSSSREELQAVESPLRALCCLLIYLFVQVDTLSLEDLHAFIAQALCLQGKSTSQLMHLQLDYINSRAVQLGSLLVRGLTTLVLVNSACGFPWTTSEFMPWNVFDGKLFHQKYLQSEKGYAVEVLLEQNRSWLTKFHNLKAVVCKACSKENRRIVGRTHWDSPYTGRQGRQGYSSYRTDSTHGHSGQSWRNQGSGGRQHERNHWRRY
Test: EMSA; 5 mM Mg2+; protein 0, 1, 5, 10, 20 nM; DNA 1 nM; EMSA: 20 mM HEPES pH 7.4, 0.1% NP-40, 0.1 M KCl, 5 mM MgCl2, 1% glycerol, 0.25 ug/uL BSA, 1 mM DTT, 30 min, room temperature; 5% native gel, 0.5x TBE
Conditions: protein: recombinant; tags: Strep-tag II (murine, C-terminal) or Strep-FLAG (human); label: 5' 32P; single strand 50 nt

B1: X4 (ssDNA)
DNA: AACGTCATAGACGATTACATTGCTAGGACATCTTTGCCCACGTTGACCCA
B1: binds.
